Assay results from article PMC6889490, “General structural features that regulate integrin affinity revealed by atypical αVβ8” (Nature Communications, 2019).
Entries after “also recorded” stand apart in the source; their conditions may differ. Blank lines part the entries; values can stand above or below the molecule they belong to. Ends that are not written are not given here. * marks the point of attachment. FITC = O=C1OC2(c3ccc(O)cc3Oc3cc(O)ccc32)c2ccc(NC(=S)*)cc21; Ahx = NCCCCCC(=O)O

Experiments:
αVβ6-WT = test: Fluorescence polarization saturation binding, αVβ6-WT; settings: 2, 5 and 10 nM probe, repeat1 and repeat2, 2 replicates each
Text: As in statistical models for determining p values, the fit assumes that errors are independent and normally distributed. The reported fit minimizes the sum of the squared errors. […] Source data for a, b are provided as a Source Data file. c Representative negative stain class averages of mutant or WT integrin headpieces alone (upper panels) or complexed with pro-TGF-β1. Representative 2:1 pro-TGF-β1:integrin class averages are shown.

αVβ8-mut6 headpiece = target: T1, αVβ8-mut6 headpiece (Homo sapiens, UniProt P06756+P26012, K165T/M430C/N161D/N162D/V301C); test: Negative stain EM headpiece opening, αVβ8-mut6; settings: 1 mM Mn2+/0.2 mM Ca2+
T1 construct: residues 1–594 of the αV-subunit and 1–456 of the β8-subunit; made in house; host or cells: Expi293 cells (transient)
T1 sequence (P06756 31-624 M430C): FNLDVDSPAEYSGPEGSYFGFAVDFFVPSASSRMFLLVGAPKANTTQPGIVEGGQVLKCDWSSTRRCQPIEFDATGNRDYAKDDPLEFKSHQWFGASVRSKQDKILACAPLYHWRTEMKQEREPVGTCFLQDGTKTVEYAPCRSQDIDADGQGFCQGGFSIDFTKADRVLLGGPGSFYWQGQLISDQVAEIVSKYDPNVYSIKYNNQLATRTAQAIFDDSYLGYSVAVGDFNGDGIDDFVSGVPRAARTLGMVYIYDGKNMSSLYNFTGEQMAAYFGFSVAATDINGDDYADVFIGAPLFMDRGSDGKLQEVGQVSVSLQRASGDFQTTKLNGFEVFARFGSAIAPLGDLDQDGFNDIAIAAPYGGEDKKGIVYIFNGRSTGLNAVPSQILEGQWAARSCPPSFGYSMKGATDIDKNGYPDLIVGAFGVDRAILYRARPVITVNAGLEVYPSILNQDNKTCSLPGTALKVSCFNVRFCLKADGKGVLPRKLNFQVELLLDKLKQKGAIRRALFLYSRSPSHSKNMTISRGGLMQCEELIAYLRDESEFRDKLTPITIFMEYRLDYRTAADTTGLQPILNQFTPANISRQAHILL
T1 sequence (P26012 43-498 N161D/N162D/K165T/V301C): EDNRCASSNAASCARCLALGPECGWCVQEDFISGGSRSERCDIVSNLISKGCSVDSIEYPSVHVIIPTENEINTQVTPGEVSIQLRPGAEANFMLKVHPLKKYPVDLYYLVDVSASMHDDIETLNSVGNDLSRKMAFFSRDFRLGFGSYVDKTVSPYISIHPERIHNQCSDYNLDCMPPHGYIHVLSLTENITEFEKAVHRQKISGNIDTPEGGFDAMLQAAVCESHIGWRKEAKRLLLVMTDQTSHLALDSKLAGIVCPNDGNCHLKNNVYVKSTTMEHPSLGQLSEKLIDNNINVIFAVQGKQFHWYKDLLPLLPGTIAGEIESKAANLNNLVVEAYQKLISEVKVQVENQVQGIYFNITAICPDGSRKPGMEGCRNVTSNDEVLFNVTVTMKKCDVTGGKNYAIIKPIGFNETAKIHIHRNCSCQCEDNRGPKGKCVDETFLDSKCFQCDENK
Text: Fig. 7 Regulation of ligand-binding affinity by atypical and typical residues in αVβ8 and αVβ6. a Mutations corresponding to sequence exchanges between αVβ8 (black) and αVβ6 (red) and effect on affinity for FITC-labeled TGF-β3 ligand peptide (GRGDLGRLKK) in presence of Mg^2+ and Mn^2+. […] As in statistical models for determining p values, the fit assumes that errors are independent and normally distributed. The reported fit minimizes the sum of the squared errors. […] Source data for a, b are provided as a Source Data file. c Representative negative stain class averages of mutant or WT integrin headpieces alone (upper panels) or complexed with pro-TGF-β1. Representative 2:1 pro-TGF-β1:integrin class averages are shown. The WT integrin class averages shown for comparison are previously published. d, e Residues in regions of βI domain allostery with unusual properties in αVβ8 (d) are compared to counterparts in αVβ6 (e). […] Mn^2+: 0.37 [0.18, 0.55] […]
αVβ8-mut3 or αVβ8-mut6 (15 μg) were mixed with pro-TGF-β1 at molar ratio 1.5:1 in 50 μl of HBS buffer containing 1 mM Mn^2+/0.2 mM Ca^2+ for 30 min and injected in a 24 ml Superdex 75 gel filtration column pre-equilibrated with HBS buffer (20 mM HEPEs, pH 7.5, 150 mM NaCl, 1 mM Mn^2+/0.2 mM Ca^2+). The 2:2, 2:1 complexes and unbound αVβ8 and pro-TGF-β1 were well separated. […]

αVβ8-WT headpiece = target: T2, αVβ8-WT headpiece (Homo sapiens, UniProt P06756+P26012, M430C/V301C); settings: Mn2+; negative stain EM; cited from earlier work
T2 construct: residues 1–594 of the αV-subunit and 1–456 of the β8-subunit; made in house; host or cells: HEK293S GntI−/− cells
T2 sequence (P06756 31-624 M430C): as the sequence (P06756 31-624 M430C) above
T2 sequence (P26012 43-498 V301C): as the sequence (P26012 43-498 N161D/N162D/K165T/V301C) above, with D119N, D120N, T123K counted along it

D8/D9 αVβ8 = D8/D9 αVβ8 compared to WT; cited from earlier work
Text: Mn^2+ increases affinity of αVβ6 in part by stabilizing headpiece opening. […] Results with αVβ8 were more complex. Substitution of one or both A ...

pro-TGF-β3 peptide [1] = target: T3, pro-TGF-β3 peptide (Homo sapiens); test: fluorescence polarization
T3 chain: {FITC-Ahx}-GRGDLGRLKK

pro-TGF-β3 peptide [2] = target: T4, pro-TGF-β3 peptide (Homo sapiens); test: fluorescence polarization
T4 chain: {FITC-Ahx}-GRGDLGRLKK

Molecule: pro-TGF-β1: Human pro-TGFβ-1 with a R249A cleavage site mutation
headpiece conformation when bound to pro-TGF-β1 (αVβ8-mut6 headpiece): remained closed; also recorded: neither mutant showed the open headpiece
headpiece conformation when bound to pro-TGF-β1 (αVβ8-WT headpiece): remained closed

Molecule: vitronectin: vitronectin, integrin ligand measured in cell binding in a cited study
amount of vitronectin binding to cells (D8/D9 αVβ8): decreased binding of D8/D9 αVβ8 compared to WT

The next lines start with the values.

Kd (αVβ6-WT; Mg fitting results, Std.Error 1.672e-10, 99% confidence interval 2.49E-09 (lower), 3.37E-09 (upper)): 2.93 nM
Kd (αVβ6-WT; Mn fitting results, Std.Error 5.139e-11, 99% confidence interval 1.21E-10 (lower), 3.88E-10 (upper)): 0.254 nM
Molecule: avb6-WT

Kd (pro-TGF-β3 peptide [1]): 30 nM
B1: Integrin αVβ8 headpiece αV 1-594 + β8 1-456 (protein)
chain 1: FNLDVDSPAEYSGPEGSYFGFAVDFFVPSASSRMFLLVGAPKANTTQPGIVEGGQVLKCDWSSTRRCQPIEFDATGNRDYAKDDPLEFKSHQWFGASVRSKQDKILACAPLYHWRTEMKQEREPVGTCFLQDGTKTVEYAPCRSQDIDADGQGFCQGGFSIDFTKADRVLLGGPGSFYWQGQLISDQVAEIVSKYDPNVYSIKYNNQLATRTAQAIFDDSYLGYSVAVGDFNGDGIDDFVSGVPRAARTLGMVYIYDGKNMSSLYNFTGEQMAAYFGFSVAATDINGDDYADVFIGAPLFMDRGSDGKLQEVGQVSVSLQRASGDFQTTKLNGFEVFARFGSAIAPLGDLDQDGFNDIAIAAPYGGEDKKGIVYIFNGRSTGLNAVPSQILEGQWAARSMPPSFGYSMKGATDIDKNGYPDLIVGAFGVDRAILYRARPVITVNAGLEVYPSILNQDNKTCSLPGTALKVSCFNVRFCLKADGKGVLPRKLNFQVELLLDKLKQKGAIRRALFLYSRSPSHSKNMTISRGGLMQCEELIAYLRDESEFRDKLTPITIFMEYRLDYRTAADTTGLQPILNQFTPANISRQAHILLDCGEDNVCKPKLEVSVDSDQKKIYIGDDNPLTLIVKAQNQGEGAYEAELIVSIPLQADFIGVVRNNEALARLSCAFKTENQTRQVVCDLGNPMKAGTQLLAGLRFSVHQQSEMDTSVKFDLQIQSSNLFDKVSPVVSHKVDLAVLAAVEIRGVSSPDHVFLPIPNWEHKENPETEEDVGPVVQHIYELRNNGPSSFSKAMLHLQWPYKYNNNTLLYILHYDIDGPMNCTSDMEINPLRIKISSLQTTEKNDTVAGQGERDHLITKRDLALSEGDIHTLGCGVAQCLKIVCQVGRLDRGKSAILYVKSLLWTETFMNKENQNHSYSLKSSASFNVIEFPYKNLPIEDITNSTLVTTNVTWGIQPAPMPV
chain 2: EDNRCASSNAASCARCLALGPECGWCVQEDFISGGSRSERCDIVSNLISKGCSVDSIEYPSVHVIIPTENEINTQVTPGEVSIQLRPGAEANFMLKVHPLKKYPVDLYYLVDVSASMHNNIEKLNSVGNDLSRKMAFFSRDFRLGFGSYVDKTVSPYISIHPERIHNQCSDYNLDCMPPHGYIHVLSLTENITEFEKAVHRQKISGNIDTPEGGFDAMLQAAVCESHIGWRKEAKRLLLVMTDQTSHLALDSKLAGIVVPNDGNCHLKNNVYVKSTTMEHPSLGQLSEKLIDNNINVIFAVQGKQFHWYKDLLPLLPGTIAGEIESKAANLNNLVVEAYQKLISEVKVQVENQVQGIYFNITAICPDGSRKPGMEGCRNVTSNDEVLFNVTVTMKKCDVTGGKNYAIIKPIGFNETAKIHIHRNCSCQCEDNRGPKGKCVDETFLDSKCFQCDENKCHFDEDQFSSESCKSHKDQPVCSGRGVCVCGKCSCHKIKLGKVYGKYCEKDDFSCPYHHGNLCAGHGECEAGRCQCFSGWEGDRCQCPSAAAQHCVNSKGQVCSGRGTCVCGRCECTDPRSIGRFCEHCPTCYTACKENWNCMQCLHPHNLSQAILDQCKTSCALMEQQHYVDQTSECFSSPSYLR

Kd (pro-TGF-β3 peptide [2]): 12 nM
B2: Integrin αVβ6 headpiece headpiece (protein)
chain 1: FNLDVDSPAEYSGPEGSYFGFAVDFFVPSASSRMFLLVGAPKANTTQPGIVEGGQVLKCDWSSTRRCQPIEFDATGNRDYAKDDPLEFKSHQWFGASVRSKQDKILACAPLYHWRTEMKQEREPVGTCFLQDGTKTVEYAPCRSQDIDADGQGFCQGGFSIDFTKADRVLLGGPGSFYWQGQLISDQVAEIVSKYDPNVYSIKYNNQLATRTAQAIFDDSYLGYSVAVGDFNGDGIDDFVSGVPRAARTLGMVYIYDGKNMSSLYNFTGEQMAAYFGFSVAATDINGDDYADVFIGAPLFMDRGSDGKLQEVGQVSVSLQRASGDFQTTKLNGFEVFARFGSAIAPLGDLDQDGFNDIAIAAPYGGEDKKGIVYIFNGRSTGLNAVPSQILEGQWAARSMPPSFGYSMKGATDIDKNGYPDLIVGAFGVDRAILYRARPVITVNAGLEVYPSILNQDNKTCSLPGTALKVSCFNVRFCLKADGKGVLPRKLNFQVELLLDKLKQKGAIRRALFLYSRSPSHSKNMTISRGGLMQCEELIAYLRDESEFRDKLTPITIFMEYRLDYRTAADTTGLQPILNQFTPANISRQAHILLDCGEDNVCKPKLEVSVDSDQKKIYIGDDNPLTLIVKAQNQGEGAYEAELIVSIPLQADFIGVVRNNEALARLSCAFKTENQTRQVVCDLGNPMKAGTQLLAGLRFSVHQQSEMDTSVKFDLQIQSSNLFDKVSPVVSHKVDLAVLAAVEIRGVSSPDHVFLPIPNWEHKENPETEEDVGPVVQHIYELRNNGPSSFSKAMLHLQWPYKYNNNTLLYILHYDIDGPMNCTSDMEINPLRIKISSLQTTEKNDTVAGQGERDHLITKRDLALSEGDIHTLGCGVAQCLKIVCQVGRLDRGKSAILYVKSLLWTETFMNKENQNHSYSLKSSASFNVIEFPYKNLPIEDITNSTLVTTNVTWGIQPAPMPV
chain 2: GCALGGAETCEDCLLIGPQCAWCAQENFTHPSGVGERCDTPANLLAKGCQLNFIENPVSQVEILKNKPLSVGRQKNSSDIVQIAPQSLILKLRPGGAQTLQVHVRQTEDYPVDLYYLMDLSASMDDDLNTIKELGSRLSKEMSKLTSNFRLGFGSFVEKPVSPFVKTTPEEIANPCSSIPYFCLPTFGFKHILPLTNDAERFNEIVKNQKISANIDTPEGGFDAIMQAAVCKEKIGWRNDSLHLLVFVSDADSHFGMDSKLAGIVIPNDGLCHLDSKNEYSMSTVLEYPTIGQLIDKLVQNNVLLIFAVTQEQVHLYENYAKLIPGATVGLLQKDSGNILQLIISAYEELRSEVELEVLGDTEGLNLSFTAICNNGTLFQHQKKCSHMKVGDTASFSVTVNIPHCERRSRHIIIKPVGLGDALELLVSPECNCDCQKEVEVNSSKCHHGNGSFQCGVCACHPGHMGPRCECGEDMLSTDSCKEAPDHPSCSGRGDCYCGQCICHLSPYGNIYGPYCQCDNFSCVRHKGLLCGGNGDCDCGECVCRSGWTGEYCNCTTSTDSCVSEDGVLCSGRGDCVCGKCVCTNPGASGPTCERCPTCGDPCNSKRSCIECHLSAAGQAREECVDKCKLAGATISEEEDFSKDGSVSCSLQGENECLITFLITTDNEGKTIIHSINEKDCPKPPNIP
